From US20180044415A1 (AbbVie / Abbott, published 2018)
Residue numbers refer to the chain shown, from its start.

T1: human DLL3 (immobilized human DLL3 or h293-hDLL3 cells) (human, UniProt Q9NYJ7 27-492, limits assumed)
T1 construct: the sentence says 'immobilized human DLL3 or h293-hDLL3 cells'
T1 sequence: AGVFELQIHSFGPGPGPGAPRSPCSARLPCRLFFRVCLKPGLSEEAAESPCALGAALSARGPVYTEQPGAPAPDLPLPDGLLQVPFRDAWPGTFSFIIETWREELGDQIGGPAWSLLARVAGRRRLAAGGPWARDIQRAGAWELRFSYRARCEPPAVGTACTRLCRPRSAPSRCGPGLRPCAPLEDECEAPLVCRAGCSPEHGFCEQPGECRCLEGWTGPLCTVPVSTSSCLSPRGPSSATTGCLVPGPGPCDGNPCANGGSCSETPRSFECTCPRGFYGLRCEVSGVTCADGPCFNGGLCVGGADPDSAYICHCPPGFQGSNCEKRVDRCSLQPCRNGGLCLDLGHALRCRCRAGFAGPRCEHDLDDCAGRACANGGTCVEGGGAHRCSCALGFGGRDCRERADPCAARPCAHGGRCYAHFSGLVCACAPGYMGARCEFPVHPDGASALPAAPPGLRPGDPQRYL

B1: SC16.52 (antibody, V domains shown)
VH: QVQLKESGPGLVAPSQSLSITCAVSGFSLTSFAIHWFRKPPGKGLEWLGVIWTGGTTNYNSALMSRLSISKDNSKSQVFLKMNSLQTDDTAMYYCARDDYDNNYAMDYWGQGTSVTVSS
VL: DIQMIQSPSSMFASLGDRVSLSCRASQGIRGTLDWYQQKPNGTIKLLIYSTSNLNSGVPSRFSGSGSGSDYSLTISSLESEDFADYYCLQRNAYPLTFGAGTKLELK
notes: murine mAb; variable regions only
B2: SC16.22 (antibody, V domains shown)
VH: QVQLQQPGAELVKPGASVKLSCKASGYTFTTYWMHWVKQRPGQGLEWIGEIDPSDSYTYYNQKFKGKATLTVDKSSSTAYMQLSSLTSEDSAVYYCARGDYGNPYAMDYWGQGSSVTVSS
VL: DIQMTQTTSSLSASLGDRVTISCRASQDIKNYLNWYQQKPDGTVKPLIYYTSRVHSGVPSRFSGSGSGTDYSLTISNLEQEDIATYFCQQGYTLPFTFGSGTKLEIK
notes: as for B1
B3: SC16.35 (antibody, V domains shown)
VH: DVQLQESGPGLVKPSQSLSLTCTVTGYSITSDYAWNWIRQFPGNKLEWMGYISYSGSTSYNPSLKSRISITRDTSKNQFFLQLNSVTTEDTATYYCARFYYGSSYAMDYWGQGTSVTVSS
VL: B2 VL with K30S, P46L, V54L, Y92N, F96Y, S100G
notes: as for B1
B4: SC16.73 (antibody, V domains shown)
VH: QVQLQQSGAELMKPGASVKISCKANGYTFSSYWIEWLRQRPGHGLEWIGEILPGSDNSNYNEKFKGKATFTADTSSNTAYMQLSSLTSEESAVYYCTRGLRRDGSYYYVMEHWGQGTSVTVSS
VL: DIQMTQSPSSLSASLGERVSLTCRASQDIGYSLNWLQQEPDGTIKRLIYATSSLDSGVPKRFSGSRSGSDYSLTISSLESEDFVDYYCLQYASSPWTFGGGTKLEIK
notes: as for B1
B5: SC16.47 (antibody, V domains shown)
VH: EVQLQQSGPELVKPGASVKISCKASGYSFSRFYMHWVKQSPENSLEWIGEINPSTGGTSYNQKFKGKATLTVDKSSSTAYMQLKSLTSEESAVYYCTRGYGSNCYFDVWGAGTTVTVST
VL: DVVLTQSPLSLPVNIGDQASISCKSTKSLLNSDGFTYLDWYLQRPGQSPQFLIYLVSNRFSGVPDRFSGSGSGTDFTLKISRVEAEDLGVYYCFQSNYLPLTFGAGTKLELR
notes: as for B1
B6: SC16.30 (antibody, V domains shown)
VH: QVTLKESGPGILQPSQTLSLTCSFSGFSLSTSGMGVGWIRQPSGKGLEWLAHIWWDDVKRYKPALKSRLTVSKDTSSNQVFLKIATVDAADTGTYYCARIVDGHPPFAYWGQGTLVTVSA
VL: QIVLTQSPTIMSASLGERVTMTCTASSSVTSSYLHWYQQKPGSSPKLWIYSTSNLASGVPARFSGSGSGTSYSLTISSMEAEDAATYYCHQFHRSPFTFGSGTKLEIK
notes: as for B1
B7: SC16.61 (antibody, V domains shown)
VH: EVLLQRSGPDLVKPGASVTIPCKASGYTFTDYNMDWVKQSHGKSLEWIGNINTYNGGTIYNQKFKGKATLTVDKPSSTAYMELRSLTSEDTAVYYCARRLRYGGHYFDYWGQGTALTVSS
VL: DIVMTQSTSSLAMSVGQKVTMSCKSSQSLLNSSNQKNYLAWYQQEPGQSPKLLVSFASTRESGVPDRFTGSGSGTDFTLTISGVQAEDLAVYYCQQHYSIPLTFGAGTKLELK
notes: as for B1
B8: SC16.63 (antibody, V domains shown)
VH: QVQLQQSGTELLRPGASVKISCKATGYTFSSYWMEWVKQRPGHGLEWIGEILPGSGTTQYNEKFKGKATFTADTSSNTAYMHLSSLTSEDSAVYYCARGTNSLWGQGTLVTVSA
VL: QIVLTQSPAIMSASPGEKVTMTCSASSSVSYMYWYQQKSGTSPKRWIYDTSKLASGVPARFSGSGSGTSYSLTISSMEAEDAATYYCQQWSSNPYTFGGGTKLEIK
notes: as for B1
B9: SC16.57 (antibody, V domains shown)
VH: EVKLVESGGDLVKPGGSLKLSCAASGFAFSSYDMSWVRQTPEKRLEWVATISSGGSYTYYPDSVKGRFTISRDNVRDTLYLQMSSLRSEDTALYYCARQAIGTYFDYWGQGTTLTVSS
VL: DIVMTQSHKFMSISVGDRVSITCKASQDVSIFVAWYQQKPGQSPKLLIYSASYRYTGVPDRFTGSGSGTDFIFTISSVQAEDLAVYYCQQHYGTPFTFGSGTKLKIR
notes: as for B1
B10: SC16.72 (antibody, V domains shown)
VH: EVQLQQSGPELVKPGASVKMSCKASGYTFTSYVMHWVKQKPGQGLEWIGYINPYNDGTKYNEKFKGKATLTSDKSSSTAYMELSSLTSEDSAVYYCARLRSRAMDYWGQGTSVTVSS
VL: ENVLTQSPAIMSASLGEKVTMSCRASSSVNYMSWYQQKSDASPKLWIYYTSNLAPGVPARFSGSGSGNSYSLTISSMEGEDAATYYCQQFTSSPYTFGGGTKLEIK
notes: as for B1
B11: SC16.49 (antibody, V domains shown)
VH: QVQLQQSGPELVKPGTLVKISCKASGYTFTSYDINWVKQRPGQGLEWIGWIYPGDGNTKYSEKFKGKATLTADKSSSTAYMQLTSLTSENSAVYFCARDYDYPFAYWGQGTLVTVSA
VL: DIKMTQSPSSMYASLGERVTITCKASQDINSYLSWFQQKPGKSPKTLIYRANRLVDGVPSRFSGSGSGQDYSLTITSLEYEDMGIYYCLQYDEFPLTFGAGTKLELK
notes: as for B1
B12: SC16.62 (antibody, V domains shown)
VH: EVMLVESGGDLVKPGGSLKLSCAASGFTFSSYAMSWVRQTPEKRLEWVAYISGGGDHIYYPDSVRGRFTISRDNAKDTLYLQMSSLRSEDTALYDCARVRDWYFDVWGAGTTVTVSS
VL: B11 VL with Y32F, Q38R, S63T, D70E, Y71F, T76S, M83L, L96Y, A100G, L106I
notes: as for B1
B13: SC16.55 (antibody, V domains shown)
VH: EVQLVESGGGLVQPKGSLKLSCAVSAFTFTTYAMNWVRQAPGKGLEWVARIRNKSNNYATYYADSVKDRFTISRDDSQSMLYLQMNNLKIEDTAMYYCVFYYDYVYWGQGTLVTVSA
VL: B11 VL with S34N, T76S, L96Y, A100G, L106I
notes: as for B1
B14: SC16.58 (antibody, V domains shown)
VH: DVQLVESGGGLVQPGGSRKLSCAASGFTFSSFGMHWVRQAPEKGLEWVAYISSGSSNIYYADTVKGRFTISRDNPKNTLFLQMTSLRSEDTAMYYCARGYYGNYDAMDYWGQGTSVTVSS
VL: DIQMTQSPASLSSSVGETVTITCRASENIYSYLAWYQQKQGKSPQLLVYNAKTLAEGVPSRFSGSGSGTQFSLKINSLQPEDFGTYYCQHHYDSPLTFGAGTKLELR
notes: as for B1
B15: SC16.38 (antibody, V domains shown)
VH: EVQLQQSGAELVKPGASVKLSCTVSGFNIKDTYIHWVKQRPEQGLEWIGRIDPANGNTKYDPKFQGKATITADTSSNTAYLQLSSLTSEDTAVYYCARPTGYFEYWGQGTTLTVSS
VL: QIVLTQSPAIMSASPGEKVTMTCSASSSINYMHWYQQKPGTSPKRWIYDTSKLASGVPARFSGSGSGTSYSLTISSMEAEDAATYYCHQRSTWTFGGGTKLEIK
notes: as for B1
B16: SC16.29 (antibody, V domains shown)
VH: QVQLQQSGAELARPGASVKLSCKASGYTFTDQYINWVKQRTGQGLEWIGEIYPGRGNTYYNEKFKGKATLTADKSSSTAYMQLSSLTSEDSAVYFCAREDGGYDDAWFAYWGQGTLVTVSA
VL: QIVLTQSPAIMSASPGEKVTITCSASSSVSYMHWFQQKPGTSPKLWIYTTSNLASGVPARFSGSGSGTSYSLTVSRMEAEDAATYYCQQRSLYPYTFGGGTKVEIK
notes: as for B1
B17: SC16.67 (antibody, V domains shown)
VH: B13 VH with S7T
VL: QAVVTQESALTTSPGETVTLTCRSSTGAVTTSNYANWIQEKPDHLFTGLIGGTNNRAPGVPARFSGSLIGDKAALTITGAQTEDEAIYFCGLWYSNHLVFGGGTKLTVL
notes: as for B1
B18: SC16.42 (antibody, V domains shown)
VH: QIQLVQSGPELKKPGETVKISCKASGYTFTTAGMQWVQKMPGKGFKWIGWINTHSGEPKYADDFKGRFAFSLETSASTAYLQISNLKDEDTATFFCAPLWSDSSFAYWGQGTLVTVSA
VL: DVLMTQSPLSLSVSLGDQASISCRSSQNIVHSDRYTYLEWYLQKPGQSPKLLIYGVSNRFSGVPDRFSGSGSGTDFTLKISRVEAEDMGVYYCFQGTHVPYTFGGGTKLEIK
notes: as for B1
B19: SC16.45 (antibody, V domains shown)
VH: QVQLQQSGADLVRPGTSVKVSCKASGYSFTNYLIEWVKQRPGQGLEWIGVINPGSGGTHYNEKFKDKAVLTADKSSTTAHMQLSSLTSDDSAVYFCARSPYDYNDGAMDYWGQGTSVTVSS
VL: EIQMTQSPSSMSASLGDRITITCQATQDIVKNLNWYQQKPGKPPSFLIYYATELAEGVPARFSGSGSGSDYSLTISNLESEDFADYHCLQFYEFPFTFGAGTKLELK
notes: as for B1
B20: SC16.65 (antibody, V domains shown)
VH: QVTLKESGPGILQPSQTLSLTCSFSGFSLSTSGMGVGWIRQPSGKGLEWLALIWWDDVKRYNPALKSRLTISKDASSSQVFLKIASVDTADTATYYCARIASYDYDVVYAMDYWGQGTSVSVSS
VL: QIVLTQSPALMSASPGEKVTMTCSVTSSVSYMYWYQQKPRSSPKPWIYLTSNLASGVPARFSGSGSGTSYSLTISSVEAEDAATYYCQQWRNNPFTFGSGTKVEIK
notes: as for B1

Biological target: T1, human DLL3 (immobilized human DLL3 or …)
Experiment: hybridoma screening on immobilized human DLL3 or on h293-hDLL3 cells

Binder	binding result
B1	binds
B2	binds
B3	binds
B4	binds
B5	binds
B6	binds
B7	binds
B8	binds
B9	binds
B10	binds
B11	binds
B12	binds
B13	binds
B14	binds
B15	binds
B16	binds
B17	binds
B18	binds
B19	binds
B20	binds
